Reference: patent US12702694B2, “Methods for identification, assessment, prevention, and treatment of metabolic disorders using SLIT2” (Dana-Farber Cancer Institute, Inc., priority 2015, dated 2026)

B1: Slit2: Slit family secreted extracellular matrix protein, full length ~180 kDa; used as commercial recombinant protein or adenovirally expressed (protein)
chain: QACPAQCSCSGSTVDCHGLALRSVPRNIPRNTERLDLNGNNITRITKIDFAGLRHLRVLQLMENRISTIERGAFQDLKELERLRLNRNNLQLFPELLFLGTAKLYRLDLSENQIQAIPRKAFRGAVDIKNLQLDYNQISCIEDGAFRALRDLEVLTLNNNNITRLSVASFNHMPKLRTFRLHSNNLYCDCHLAWLSDWLRQRPRVGLYTQCMGPSHLRGHNVAEVQKREFVCSGHQSFMAPSCSVLHCPAACTCSNNIVDCRGKGLTEIPTNLPETITEIRLEQNSIRVIPPGAFSPYKKLRRLDLSNNQISELAPDAFQGLRSLNSLVLYGNKITELPKSLFEGLFSLQLLLLNANKINCLRVDAFQDLHNLNLLSLYDNKLQTVAKGTFSALRAIQTMHLAQNPFICDCHLKWLADYLHTNPIETSGARCTSPRRLANKRIGQIKSKKFRCSGTEDYRSKLSGDCFADLACPEKCRCEGTTVDCSNQRLNKIPDHIPQYTAELRLNNNEFTVLEATGIFKKLPQLRKINFSNNKITDIEEGAFEGASGVNEILLTSNRLENVQHKMFKGLESLKTLMLRSNRISCVGNDSFIGLGSVRLLSLYDNQITTVAPGAFDSLHSLSTLNLLANPFNCNCHLAWLGEWLRRKRIVTGNPRCQKPYFLKEIPIQDVAIQDFTCDDGNDDNSCSPLSRCPSECTCLDTVVRCSNKGLKVLPKGIPKDVTELYLDGNQFTLVPKELSNYKHLTLIDLSNNRISTLSNQSFSNMTQLLTLILSYNRLRCIPPRTFDGLKSLRLLSLHGNDISVVPEGAFNDLSALSHLAIGANPLYCDCNMQWLSDWVKSEYKEPGIARCAGPGEMADKLLLTTPSKKFTCQGPVDITIQAKCNPCLSNPCKNDGTCNNDPVDFYRCTCPYGFKGQDCDVPIHACISNPCKHGGTCHLKEGENAGFWCTCADGFEGENCEVNIDDCEDNDCENNSTCVDGINNYTCLCPPEYTGELCEEKLDFCAQDLNPCQHDSKCILTPKGFKCDCTPGYIGEHCDIDFDDCQDNKCKNGAHCTDAVNGYTCVCPEGYSGLFCEFSPPMVLPRTSPCDNFDCQNGAQCIIRINEPICQCLPGYLGEKCEKLVSVNFVNKESYLQIPSAKVRPQTNITLQIATDEDSGILLYKGDKDHIAVELYRGRVRASYDTGSHPASAIYSVETINDGNFHIVELLTLDSSLSLSVDGGSPKVITNLSKQSTLNFDSPLYVGGMPGKNNVASLRQAPGQNGTSFHGCIRNLYINSELQDFRKMPMQTGILPGCEPCHKKVCAHGMCQPSSQSGFTCECEEGWMGPLCDQRTNDPCLGNKCVHGTCLPINAFSYSCKCLEGHGGVLCDEEEDLFNPCQMIKCKHGKCRLSGVGQPYCECNSGFTGDSCDREISCRGERIRDYYQKQQGYAACQTTKKVSRLECRGGCAGGQCCGPLRSKRRKYSFECTDGSSFVDEVEKVVKCGCARCAS
B2: Slit2-C: ~50 kDa C-terminal cleavage fragment of Slit2 beginning at TSP (SEQ ID NO: 22); adenovirally expressed or purified FLAG-tagged protein (protein, listed as Homo sapiens)
chain: TSPCDNFDCQNGAQCIIRINEPICQCLPGYLGEKCEKLVSVNFVNKESYLQIPSAKVRPQTNITLQIATDEDSGILLYKGDKDHIAVELYRGRVRASYDTGSHPASAIYSVETINDGNFHIVELLTLDSSLSLSVDGGSPKVITNLSKQSTLNFDSPLYVGGMPGKNNVASLRQAPGQNGTSFHGCIRNLYINSELQDFRKMPMQTGILPGCEPCHKKVCAHGMCQPSSQSGFTCECEEGWMGPLCDQRTNDPCLGNKCVHGTCLPINAFSYSCKCLEGHGGVLCDEEEDLFNPCQMIKCKHGKCRLSGVGQPYCECNSGFTGDSCDREISCRGERIRDYYQKQQGYAACQTTKKVSRLECRGGCAGGQCCGPLRSKRRKYSFECTDGSSFVDEVEKVVKCGCARCAS
modifications: FLAG tag
notes: adenovirally expressed or purified FLAG-tagged protein

What was measured:
[1] = tested on: lean mice; experiment: Tissue gene expression after intravenous delivery of adenovirus to lean mice; assay type: in vivo, Mus musculus
Procedure: All animal experiments were approved by the Institutional Animal Care and Use Committee of the Beth Israel Deaconess Medical Center. Mice (Mus musculus) were obtained from Jackson Laboratories, maintained in 12 hour light-lark cycles (6 a.m.-6 p.m.) at 22° C., and fed a standard irradiated rodent chow diet or a high-fat diet (60% fat) for 12-20 weeks. AAV-8 viruses (Penn Vector Core) and adenoviruses (Vector Biolabs or constructed in-house) were injected at a titer of 10^11 or 10^10 per mouse, respectively. All experiments were done with male mice. The aP2-PRDM16 transgenic mice have been previously described in Seale et al. (2011) J. Clin. Invest. 121:96-105. PRDM16-floxed mice were crossed with adiponectin-Cre and were maintained on a pure C57BL/6 background (Cohen et al. (2014) Cell 156:304-316). The Slit2-floxed mice have been described previously in Rama et al. (2015) Nat. Med. 21:483-491. Lean C57BL/6 mice were obtained from Jackson Laboratories and were […].
RNA was extracted from cultured cells or frozen tissue samples using TRIzol®, purified with QIAGEN RNeasy® minicolumns. Normalized RNA was reversed transcribed using a high-capacity cDNA reverse transcription lot (Applied Biosystems) and cDNA was analyzed by qRT-CPR. Relative mRNA levels were calculated using the comparative CT method and normalized to cyclophilin […]. All primers used are listed with their sequences in Table 3 as follows: […]
Slit2 full-length (untagged and Myc-DDK tagged) expression plasmids and corresponding LacZ control plasmids in adenovirus was purchased from Vector Biolabs. To construct the Slit2-N and Slit2-C ENTR clones, PCR primers were designed to amplify the signal peptide, N-terminal, and C-terminal Slit2 from mouse cDNA (OriGene MR227608). To construct the Slit2-N and Slit2-C ENTR clone, the Slit2N gene was amplified from mouse Slit2 cDNA to create PCR fragments corresponding to Slit2-signal peptide and Slit2-N that were ligated into the pENTR1a dual selection vector. The Slit2-C PCR fragment was sub-cloned into the pENTR1a vector containing the signal peptide. The Slit2-N and Slit2-C expression clones in which the fragments are fused to a C-terminal V5 tag were generated by performing the LR reaction between pENTR/D-TOPO-Slit2N or pENTR/D-TOPO-Slit2-C and pAD/CMV/V5-DEST (Life Technologies). The expression construct was cut with Pac and transfected into HEK-293A cells to produce crude adenoviral stock. Amplified virus was purified and concentrated using the Vivapure® adenopack 100 (Sartorius Stedim Biotech) and buffer exchanged to 10 mM Tris-Cl at pH 8.0, 2 mM MgCl2, 4% w/v sucrose. Adenovirus titer was calculated using an Adeno-X™ Rapid Titer kit (Clontech). For primary adipocytes a concentration of 10^8 pfu/well was used and 10^10 pfu/mouse were used for in vivo experiments. Expression levels of Slit2-N and Slit2-C were confirmed after 48 hours post infection by Western blot analysis using a V5 antibody (Life Technologies). Expression of Slit2-N and Slit2-C was performed by amplification from mouse Slit2 cDNA and ligated into the pENTR dual selection vector with a signal peptide sequence.

[2] = tested on: diet-induced obese mice; experiment: Intraperitoneal glucose tolerance test; assay type: in vivo, Mus musculus
Procedure: (§1) Glucose tolerance tests were performed on mice 7 days post-injection with adenovirus. […] Animals were fasted overnight and then received intraperitoneal glucose at […]. Energy expenditure was analyzed using a Comprehensive Lab Animal Monitoring System (Columbus Instruments). Cold exposure and thermoneutrality experiments were performed in Balb/c mice at 4° C. or 30° C., respectively. Total levels of cholesterol, free fatty acids, triglycerides and insulin were measured at the Core Facility at Joslin Diabetes Center.

[3] = tested on: inguinal white fat tissue and brown fat tissue; experiment: Tissue respiration (Clark electrode) of minced adipose tissue; assay type: in vivo, Mus musculus; settings: day 7 after adenovirus injection
Procedure: (§2) Tissue respiration was performed using a Clark electrode (Stathkelvin Instruments). Freshly isolated tissues were dissected from mice treated with LacZ or Slit2-C adenovirus for 7 days. Equally sized pieces of tissue were minced and placed in respiration buffer containing PBS supplemented with 2% (w/v) bovine serum albumin, 1% (w/v) glucose, and 1 mM Na pyruvate. Oxygen (O2) consumption was normalized to tissue weight. Cellular oxygen consumption rates were determined using an XF24 Extracellular Flux Analyzer (Seahorse Biosciences). Primary brown fat adipocytes were seeded at 15,000 cells/well, differentiation was induced the following day as previously described, and the cells were analyzed on day 5. On the day of analysis, the cells were washed once with Seahorse respiration buffer (8.3 g/l DMEM, 1.8 g/l NaCl, 1 mM pyruvate, 20 mM glucose, pen/strep), placed in 0.5 ml Seahorse respiration buffer, and incubated in a C02-free incubator for 1 hr. Port injection solutions were prepared as follows: oligomycin (1 μM final concentration), norepinephrine (1 μM final concentration), FCCP (0.2 μM final concentration), and rotenone (3 μM final concentration). Each cycle consisted of the following: mix 4 min, wait 0 min, and measure 2 min. Data are presented as S.E.M.

[4] = Plasma cholesterol, triglycerides and insulin; assay type: in vivo, Mus musculus; settings: 7 days post-injection
Procedure: as §1

[5] = tested on: primary inguinal fat cells; experiment: Cellular oxygen consumption measured by Seahorse; assay type: cell-based, Mus musculus; settings: recombinant Slit2-C 1 ug/mL (Calico/AbbVie), acute or 2 h treatment; FIG. 13
Procedure: as §2, with “Port injection solutions were prepared as follows: oligomycin (1 μM final concentration), norepinephrine (1 μM final concentration), FCCP (0.2 μM final concentration), and rotenone (3 μM final concentration). Each cycle consisted of the following: mix 4 min, wait 0 min, and measure 2 min. Data are presented as S.E.M.” left out
As described above in Examples 5-7, in vitro and in vivo data on respiration using Slit2-C adenovirus overexpression models and loss-of-function analyses in Seahorse assays are described. In vitro confirmation of the results was determined using an alternative source of recombinant Slit2-C (FIG. 13). […] Cellular oxygen consumption rates were determined as described in Example 1 Statistical analysis was performed as described in Example 1C above.

[6] = i.v. Slit2 adenovirus vs LacZ, lean mice, day 7, FIG. 4E
[7] = lean mice, Slit2-C adenovirus, FIG. 6D

Molecule	vascular and neuronal markers in fat or skeletal muscle ([1]; 7 days postinjection, FIGS. 12D-12F)	induction of PRDM16 in brown fat ([1]; i.v. Slit2 adenovirus)	other thermogenic genes or UCP1 protein in brown fat ([1]; i.v. Slit2 adenovirus)	induction of Ucp1 and Elovl3 in inguinal adipose tissue ([1]; i.v. Slit2 adenovirus vs LacZ, day 7, FIG. 3F)	induction of Prdm16 in iWAT [1, 6]	induction of Ucp1 in iWAT [1, 6]	lipolysis or lipogenesis gene expression in the liver ([1]; i.v. Slit2 adenovirus, FIG. 4A)	skeletal muscle gene expression of Glut1, Glut4 and Tnfa ([1]; i.v. Slit2 adenovirus, FIG. 4B)	white fat selective genes, including Leptin and Resistin ([1]; iWAT, i.v. Slit2 adenovirus, FIG. 4E)	glucose tolerance, compared with Slit2-C experiments ([2]; full-length Slit2 adenovirus, FIG. 9F)	O2 consumption of inguinal tissue ([3]; did not reach significance)	O2 consumption of BAT ([3]; reached significance)	total plasma cholesterol ([4]; FIG. 9G)	plasma triglycerides ([4]; FIG. 9H)	non-fasting insulin levels ([4]; FIG. 9I)	induction of Ucp1 mRNA in iWAT ([1]; lean mice injected with Slit2-C adenovirus, FIG. 6C)	expression of mitochondrial genes (Atp5b, Uqcrb, Atp6vOa2, Atp9b, Cox5a) in BAT [1, 7]	transcriptional regulators Prdm16, Nrf1, and Erra in classical brown fat [1, 7]	cellular oxygen consumption vs results of Examples 5-7 [5]	glucose tolerance ([2]; diet-induced obese mice, circulating Slit2-C, day 7, FIG. 8G)
B1	did not change	greater than 2 fold	without any changes	2 fold	1.5 fold	2.5 fold	No changes	no gene expression changes	strongly suppressed	comparable results										
B2											elevated	elevated	not affected	not affected	not affected	3 fold	upregulation	significant changes	confirm the results	dramatically improve
